The results in this text go back to patent US20190112362A1 (published 2019).

The term Kd denotes the constant that tells how readily two partners part at equilibrium.

The target of the assay is Human Tau monomer (recombinant 2N4R isoform, amino acids 2-441) (human, UniProt P10636 2-441). The assay is described as follows: SPR. (In general: Surface plasmon resonance follows binding to a sensor surface in real time, without labels.)
Human Tau monomer (recombinant 2N4R isoform, amino acids 2-441), sequence (P10636 other isoform, or with tags, fused parts or gaps): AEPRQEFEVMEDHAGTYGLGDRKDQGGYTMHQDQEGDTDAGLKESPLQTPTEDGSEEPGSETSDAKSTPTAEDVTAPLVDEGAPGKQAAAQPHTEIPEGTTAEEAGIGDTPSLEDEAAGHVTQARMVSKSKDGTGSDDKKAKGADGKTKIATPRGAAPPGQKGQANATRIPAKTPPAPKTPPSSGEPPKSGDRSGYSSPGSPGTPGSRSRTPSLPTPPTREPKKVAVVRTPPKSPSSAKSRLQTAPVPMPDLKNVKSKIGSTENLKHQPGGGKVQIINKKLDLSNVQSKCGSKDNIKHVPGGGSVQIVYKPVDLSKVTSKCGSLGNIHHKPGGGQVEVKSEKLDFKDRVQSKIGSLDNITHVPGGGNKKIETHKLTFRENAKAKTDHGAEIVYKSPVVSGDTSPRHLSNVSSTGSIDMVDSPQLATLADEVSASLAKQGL

As for EDLHSNADTYFL [hu37D3.v29.8], the Kd was 40.9 nM.
